Assay results reported in US20140294866A1 (Amgen, published 2014).
Substitutions are numbered along the chain they refer to. One block for each binder: values may come before it.

Legend:
[1] = biological target: T1, recombinant mature myostatin (human, produced in E. coli) (human, UniProt O14793 267-375); experiment: cell-based or functional assay
T1 sequence (looked up): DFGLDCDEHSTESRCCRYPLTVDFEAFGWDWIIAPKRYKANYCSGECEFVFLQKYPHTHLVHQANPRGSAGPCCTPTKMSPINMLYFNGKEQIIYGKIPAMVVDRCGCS

[2] = biological target: T1, recombinant mature myostatin (human, …); experiment: KinExA solution based assay or BIAcore assay (not said which)
[3] = biological target: T1, recombinant mature myostatin (human, …); experiment: cell-based or functional assay; remark: listed apart in the source

- IC50 (read off the curve); luciferase activity, C2C12 pMARE-luc reporter cells, 4 nM myostatin [1]: ~20000 nM
Binder: QGHCTRWPWMCPPY [TN8-19 peptide]

- Kd [2]: 12 pM
B1: 2x mTN8-19-7 peptibody (Fc fusion)
chain: GGGGGAQLADHGQCIRWPWMCPPEGWELEGSGSATGGSGSTASSGSGSATGLADHGQCIRWPWMCPPEGWELE

- IC50 (nM), C2C12 pMARE-luc myostatin activity assay [3]: ~83 nM
B2: recombinant human activin receptor IIB/Fc chimera (R&D Systems) (Fc fusion, UniProt Q13705 19-134, looked up, not shown: a dimerising Fc or GST)
chain: SGRGEAETRECIYYNANWELERTNQSGLERCEGEQDKRLHCYASWRNSSGTIELVKKGCWLDDFNCYDRQECVATEENPQVYFCCCEGNFCNERFTHLPEAGGPEVTYEPPPTAPT

- Kd [2]: 6 pM
B3: 2x mTN8-19-21 peptibody (Fc fusion)
chain: GGGGGAQSEYQGLCTRWPWMCPPQGWKLEGSGSATGGSGSTASSGSGSATGSEYQGLCTRWPWMCPPQGWKLE
notes: Human Fc form

- Kd [2]: 3 pM
B4: 2x mTN8-19-33 peptibody (Fc fusion)
chain: B3 chain with S8P, Y10S, L13H, K27G, S52P, Y54S, L57H, K71G
